Measurements: article PMC6677837, “A Novel Cell-Penetrating Antibody Fragment Inhibits the DNA Repair Protein RAD51” (Scientific Reports, 2019)

Tests used:
[1] = target: T1, Recombinant human RAD51 (residues 21-339, C-terminal Leu-Glu-His6) (human, UniProt Q06609 21-339); assay: BLI
T1 chain: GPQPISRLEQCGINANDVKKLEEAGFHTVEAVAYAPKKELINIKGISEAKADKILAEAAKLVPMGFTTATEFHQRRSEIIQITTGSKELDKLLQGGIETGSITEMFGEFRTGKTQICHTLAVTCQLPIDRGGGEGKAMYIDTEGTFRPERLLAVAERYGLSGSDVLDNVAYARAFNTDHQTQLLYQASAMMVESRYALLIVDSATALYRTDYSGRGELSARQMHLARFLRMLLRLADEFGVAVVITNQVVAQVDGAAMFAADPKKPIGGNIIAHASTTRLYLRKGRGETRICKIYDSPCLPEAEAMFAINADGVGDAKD

[2] = target: T2, Recombinant human RAD51 (residues 21-339, C-terminal Leu-Glu-His6) (Homo sapiens, UniProt Q06609); assay: BLI; Fab (about 0.5 nm) immobilised on Protein L biosensors, range of RAD51 concentrations in solution; 25 °C, PBS pH 7.4 with 0.1% Tween 20 and 10 mg/mL BSA; global fit, 1:1 Langmuir model, reference well subtracted; conditions: both partners purified
T2 construct: RAD51, Homo sapiens, residues 21-339, inserted between the NcoI and XhoI sites of pET28a; Cloning at the NcoI site may add a start methionine; also called purified RAD51; plasmid-expressed RAD51; source: E. coli Rosetta(DE3), pET28a-RAD51, purified (ammonium sulfate, DE52 anion exchange, HiTrap Ni-chelating column); also in E. coli whole cell lysate

[3] = target: T2, Recombinant human RAD51 (residues …); assay: cell-based or functional assay
RAD51 = RAD51 (Homo sapiens, UniProt Q06609 21-339); assay: BLI; no Fab-F2; 1:1 Langmuir global fit; BLI on streptavidin biosensors; 0.5 uM RAD51 for the inhibition assay; buffer, salt, pH and temperature not given in the material (RAD51 dialyzed into PBS); conditions: protein: recombinant; label: 5'-biotin; single strand

B1: Fab-F2-iPTD (Fab, V domains shown)
VH: EVQLVESGGGLVQPGGSLRLSCAASGFTFSSYGMHWVRQAPGKGLEWVAVISYDGSNKYYADSVKGRFTISADTSKNTAYLQMNSLRAEDTAVYYCARTYSYASRGWYDYWGQGTLVTVSS
VL: DIQMTQSPSSLSASVGDRVTITCRASQGISNYLAWYQQKPGKAPKLLIYAASSLQSGVPSRFSGSRSGTDFTLTISSLQPEDFATYYCQQGTYLPLTFGQGTKVEIK
notes: as the heavy chain of m2; as the light chain of m2; also called cell-penetrating Fab-F2-iPTD; source: E. coli, pCW-Fab-F2-iPTD, purified
**Q.** For B1, which koff [1] is on record?
**A.** The koff was 0.000658 s⁻¹.

**Q.** And the Kd [2]?
**A.** Its Kd is 18.2 nM.

**Q.** And the “koff, fold lower than for Fab-F2” value [2]?
**A.** The value was ~2 fold.

**Q.** And the “kon, fold lower than for Fab-F2” value [2]?
**A.** The value was ~2 fold.

B2: Fab-F2 (Fab, V domains shown)
VH: EVQLVESGGGLVQPGGSLRLSCAASGFTFSSYGMHWVRQAPGKGLEWVAVISYDGSNKYYADSVKGRFTISADTSKNTAYLQMNSLRAEDTAVYYCARTYSYASRGWYDYWGQGTLVTVSS
VL: DIQMTQSPSSLSASVGDRVTITCRASQGISNYLAWYQQKPGKAPKLLIYAASSLQSGVPSRFSGSRSGTDFTLTISSLQPEDFATYYCQQGTYLPLTFGQGTKVEIK
notes: Human IgG1 synthetic Fab from phage Library S (randomised CDRL3 and CDRH3, canonical other CDRs); In the Western blots the Fab was labelled with IRDye 800CW; also called IRDye 800CW-labeled Fab-F2; source: also in small-scale E. coli lysate
**Q.** Which results are given for B2?
**A.** inhibition of RAD51 (500 nM, pre-incubated with various concentrations of Fab-F2) binding to immobilised 5'-biotinylated oligo(dT)36 ssDNA, by BLI; IC50 [3]: < 125 nM; Kd [2]: 8.1 ± 0.21 nM; koff [2]: 0.000156 s⁻¹; kon [2]: 19300 M⁻¹ s⁻¹

B3: oligo(dT)36 (ssDNA)
DNA: TTTTTTTTTTTTTTTTTTTTTTTTTTTTTTTTTTTT
**Q.** How did the Kd (RAD51) turn out when B3 was run?
**A.** The Kd was 27.6 ± 4.75 nM.
